For the series, the target named is Neuropeptide Y (NPY) (UniProt P01303 29-64). Description: electrochemical impedance spectroscopy.

B1: NPY aptamer (80-base ssDNA) (ssDNA)
DNA: AGCAGCACAGAGGTCAGATGCAAACCACAGCCTGAGTGGTTAGCGTATGTCATTTACGGACCTATGCGTGCTACCGTGAA
modifications: 5' disulfide C6 (reduced to thiol), immobilized on Au
B1: the binding result is given as “binds”.
